The values below come from patent US20160244525A1 (Genentech, published 2016).

The chains are these.
T1: FGFR3-IIIc (human, UniProt P22607 23-375, limits assumed)
T1 construct: also called human FGFR3-IIIc
T1 sequence: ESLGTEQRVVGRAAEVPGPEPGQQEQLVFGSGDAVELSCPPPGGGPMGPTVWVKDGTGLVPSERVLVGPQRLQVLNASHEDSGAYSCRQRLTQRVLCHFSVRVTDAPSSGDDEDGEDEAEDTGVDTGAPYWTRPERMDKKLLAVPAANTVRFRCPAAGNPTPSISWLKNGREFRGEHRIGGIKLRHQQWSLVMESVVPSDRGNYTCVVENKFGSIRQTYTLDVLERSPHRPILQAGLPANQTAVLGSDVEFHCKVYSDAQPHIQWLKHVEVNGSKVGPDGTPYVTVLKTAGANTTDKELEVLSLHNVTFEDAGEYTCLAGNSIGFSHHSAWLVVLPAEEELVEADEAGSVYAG

B1: 2B1.1.2 (antibody, V domains shown)
VH: EVQLVESGGGLVQPGGSLRLSCAASGFTFTSTGISWVRQAPGKGLEWVGRYWAWDGSTNYADSVKGRFTISADTSKNTAYLQMNSLRAEDTAVYYCARTYGIYDTYDNYTEYVMDYWGQGTLVTVSS
VL: DIQMTQSPSSLSASVGDRVTITCRASQDVDTSLAWYKQKPGKAPKLLIYSASFLYSGVPSRFSGSGSGTDFTLTISSLQPEDFATYYCQQSTGHPQTFGQGTKVEIKR
B2: 2B1.1.10 (antibody, V domains shown)
VH: EVQLVESGGGLVQPGGSLRLSCAASGFPFTSQGISWVRQAPGKGLEWVGRYWAWDGSTNYADSVKGRFTISADTSKNTAYLQMNSLRAEDTAVYYCARTYGIYDTYDKYTEYVMDYWGQGTLVTVSS
VL: DIQMTQSPSSLSASVGDRVTITCRASQDVDTSLAWYKQKPGKAPKLLIYSASFLYSGVPSRFSGSGSGTDFTLTISSLQPEDFATYYCQQSTGHPQTFGQGTKVEIKR
B3: 2B1.1.8 (antibody, V domains shown)
VH: EVQLVESGGGLVQPGGSLRLSCAASGFPFTSLGISWVRQAPGKGLEWVGRYWAWDGSTNYADSVKGRFTISADTSKNTAYLQMNSLRAEDTAVYYCARTYGIYDIYEKYTEYVMDYWGQGTLVTVSS
VL: DIQMTQSPSSLSASVGDRVTITCRASQDVDTSLAWYKQKPGKAPKLLIYSASFLYSGVPSRFSGSGSGTDFTLTISSLQPEDFATYYCQQSTGHPQTFGQGTKVEIKR
B4: 2B1.1.12 (antibody, V domains shown)
VH: EVQLVESGGGLVQPGGSLRLSCAASGFPFTSTGISWVRQAPGKGLEWVGRYWAWDGSTNYADSVKGRFTISADTSKNTAYLQMNSLRAEDTAVYYCARTYGIYDTYDMYTEYVMDYWGQGTLVTVSS
VL: DIQMTQSPSSLSASVGDRVTITCRASQDVDTSLAWYKQKPGKAPKLLIYSASFLYSGVPSRFSGSGSGTDFTLTISSLQPEDFATYYCQQSTGHPQTFGQGTKVEIKR
B5: 2B.1.1.6 (antibody, human IgG1, kappa, V domains shown)
VH: EVQLVESGGGLVQPGGSLRLSCAASGFTFTSTGISWVRQAPGKGLEWVGRYWAWDGSTNYADSVKGRFTISADTSKNTAYLQMNSLRAEDTAVYYCARTYGIYDTYDEYTEYVMDYWGQGTLVTVSS
VL: DIQMTQSPSSLSASVGDRVTITCRASQDVDTSLAWYKQKPGKAPKLLIYSASFLYSGVPSRFSGSGSGTDFTLTISSLQPEDFATYYCQQSTGHPQTFGQGTKVEIKR
notes: Full IgG1/kappa chains
B6: 2B1.1.4 (antibody, V domains shown)
VH: EVQLVESGGGLVQPGGSLRLSCAASGFTFTSTGISWVRQAPGKGLEWVGRYWAWDGSTNYADSVKGRFTISADTSKNTAYLQMNSLRAEDTAVYYCARTYGIYDIYGGYTEYVMDYWGQGTLVTVSS
VL: DIQMTQSPSSLSASVGDRVTITCRASQDVDTSLAWYKQKPGKAPKLLIYSASFLYSGVPSRFSGSGSGTDFTLTISSLQPEDFATYYCQQSTGHPQTFGQGTKVEIKR
B7: 25F7 (antibody, V domains shown)
VH: EVQLQQSGAELLKPGASVRLSCTASGFNIQDTFTHWVRQRPEQGLEWIGRIDPSNGNTKYDPKFQGKAKILADTSSNTAYLQLIGLTSEDTAVYYCASRALGNGYAMDYWGQGTSVTVSS
VL: DIQMTQSSSYLSVSLGGRVTITCKASDHINNWLAWYQQKPGNAPRLLISGASNLETGIPSRFSGSGSGKDYTLTITSLQTEDVATYYCQQYWNTPFTFGSGTKLEIK
B8: 5F8 (antibody, V domains shown)
VH: EVQLQQSGTELVRPGASVKLSCTSSDFNIKDTYIHWVKQRPEQGLDWLGRIDPANGNTKYDPKFQGKAAMTSDTSSNTAYLRLSSLTSEDTAVYYCASSGNYGAMDYWGQGTSVTVSS
VL: ESVLTQSPALMSASLGEKVTMTCRASSSVNHMYWYQQKSDASPKLWIYYTSTLAPGVPARFSGSGSGNSYSLTISSMEGEDAATYYCQQFTISPSMYTFGGGTKLEIK
B9: 14C6 (antibody, V domains shown)
VH: QIQLQQSGAELMKPGASVRMSCKASGYTFSSYWIEWVKQRSGHGLEWIGEIFPGGGSTIYNENFRDKATFTADTSSNTAYMQLSSLTSEDSAVYFCARRGYYDAAWFDYWGQGTLVTVSA
VL: QIVLTQSPAIMSASPGERVTLTCSASSSLSSSYLYWYQQKPGSSPKLWIYGASNLASGVPGRFSGSGSGTSYSLTISSMEAEDAASYFCHQWSSYPLTFGSGTKLELK
B10: 8H7 (antibody, V domains shown)
VH: QVQLQQPGAEIVKPGASVRLSCKASGYSFTSYWIHWVKQRPGQGLEWIGEIDPSVSNSNYNQKFKGKATLTADKSSSTAYMQLSGLTSEDSAVYFCVRLGVMVYGSSPFWFAYWGQGTLVTVSA
VL: DIVMTQSQKFMSTSVGDRVSITCKASQFVSDAVAWYQQKPGQSPKLLICSASYRYTGVPDRFTGSGSGTDFTFTISSVRTEDLAVYYCQQHYIVPYTFGGGTTLEIE
B11: 24A1 (antibody, V domains shown)
VH: QVQLKQSGAELVRPGTSVTLSCKASGYTFTDYEMHWMKQTPVYGLEWIGAIWPENADSVYNQKFKGKVTLTADKSSSTAYMDLRSLTSEDSAVYYCTREGGNYWGQGTTLTVSS
VL: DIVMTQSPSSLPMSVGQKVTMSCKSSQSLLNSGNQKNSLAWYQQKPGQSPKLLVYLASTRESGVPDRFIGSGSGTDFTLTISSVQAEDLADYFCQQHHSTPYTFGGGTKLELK
B12: 11D4 (antibody, V domains shown)
VH: QVQVKESGPGLVAPSQSLSITCTVSGFSLTNYGVSWIRQPPGKGLEWLGVIWGDGSINYHSALISRLTITKDNSKSQVFLKLNSLEADDTATYYCAKTHDWFDYWGQGTLVTVSA
VL: DIQMTQTPSSLSASLGDRVTINCRASQDISNYFNWYQQKPNGTIKLLIYYTSRLQSGVPSRFSGSGSGTDYSLTISNLEQEDKATYFCHQVRTLPWTFGGGTKLEIK

T2 sequence (chain, as listed by the source limits assumed): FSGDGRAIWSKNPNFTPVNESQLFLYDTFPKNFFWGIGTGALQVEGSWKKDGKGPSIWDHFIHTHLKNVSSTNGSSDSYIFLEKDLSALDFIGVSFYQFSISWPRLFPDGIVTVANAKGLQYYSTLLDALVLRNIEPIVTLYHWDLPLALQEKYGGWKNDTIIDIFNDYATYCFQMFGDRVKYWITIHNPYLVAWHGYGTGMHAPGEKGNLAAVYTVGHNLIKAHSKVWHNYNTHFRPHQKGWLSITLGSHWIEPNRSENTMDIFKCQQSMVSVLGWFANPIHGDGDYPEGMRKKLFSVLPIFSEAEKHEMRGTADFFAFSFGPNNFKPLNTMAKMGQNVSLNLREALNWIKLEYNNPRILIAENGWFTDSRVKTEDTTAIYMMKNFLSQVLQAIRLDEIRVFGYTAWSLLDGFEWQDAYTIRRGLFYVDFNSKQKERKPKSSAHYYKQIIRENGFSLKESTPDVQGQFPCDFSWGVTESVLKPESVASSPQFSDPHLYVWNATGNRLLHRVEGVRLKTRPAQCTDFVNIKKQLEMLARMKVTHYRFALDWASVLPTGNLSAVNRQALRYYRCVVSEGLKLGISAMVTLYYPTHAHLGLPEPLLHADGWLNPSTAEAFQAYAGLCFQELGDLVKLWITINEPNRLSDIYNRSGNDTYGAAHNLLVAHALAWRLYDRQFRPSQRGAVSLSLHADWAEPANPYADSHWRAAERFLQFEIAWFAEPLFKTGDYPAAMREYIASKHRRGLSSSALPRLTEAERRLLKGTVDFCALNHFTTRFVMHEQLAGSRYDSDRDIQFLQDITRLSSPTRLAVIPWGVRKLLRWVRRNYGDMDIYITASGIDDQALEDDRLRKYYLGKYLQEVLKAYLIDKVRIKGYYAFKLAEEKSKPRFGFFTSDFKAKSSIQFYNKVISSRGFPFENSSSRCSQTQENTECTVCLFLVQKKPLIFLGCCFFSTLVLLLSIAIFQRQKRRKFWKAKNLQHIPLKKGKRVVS

The first test concerns the target T1, FGFR3-IIIc. Put plainly: surface plasmon resonance (Biacore).
What is called Kd is the equilibrium constant for the complex coming apart. Turning to B1, the Kd was 0.0908 nM.
On the same count and under the same terms, with B2 the figure was 0.198 nM.
The same measure, in the same setting: with B3 the figure was 0.112 nM; with B4, 0.142 nM; with B5, 0.0796 nM.
For the molecule B6, the dissociation constant (Kd) came to 0.153 nM.

The next test addresses T2, hKLB.
T2 construct: also called human beta-Klotho on 293 cells
The test can be described thus: FACS on 293 cells expressing hKLB, antibody at 0.8 ug/ml.
Turning to B7, the binding result was “binds”.
Still for that read-out and setting: with B8 the entry was “binds”.
As for B9, the binding result is reported as “binds”.
Same read-out and setting: in the case of B10 it was “binds”.
Same read-out and setting: with B11 the entry was “binds”.
Still for that read-out and setting: in the case of B12 it was “binds”.
